Reference: patent publication US5686073

B1: 50 kDa dystrophin-associated glycoprotein (protein)
chain: GPGGTEAQQTTLYPLVGRVFVHTLEPASFLHLPEHAAPATIPVTYHAHLQGHPDLPRWLRYTQRSPHHPGFLYGAATPEDRGRQVIEVTAYNRDSFDTAGQSLVLLIRDPEGSPLPYQTEFLVRSHDVEEVLPPTPASHFLTALAGLWEPGELKLLNITSALDRGGRVPLPIGGQKEGVYIKVGSASPFSTCLKMVASPDSHARCARGQPPLLSCYDTLAPHFRVDWCNVSLVDTSVPEPVDEVPTPGDGILEHDPFFCPPTEATARDFLADALVTLLVPLLVALLLALLLAYIMCCRREGRLKRDLATSDIQMVHHCTIHENTEELRQMAASREVPRPLFPLPMFNVRTGERMPPRVDSAQVPLILDQH

Experiments:
[1] = molecular target: 50 kDa dystrophin-associated glycoprotein (rabbit); assay: co-immunoprecipitation with the 50 kDa glycoprotein on IVD31-Sepharose from untreated complex
[2] = molecular target: dystrophin (rabbit); assay: co-immunoprecipitation with dystrophin on XIXC2-Sepharose from untreated complex
[3] = molecular target: 50 kDa dystrophin-associated glycoprotein (rabbit); assay: co-immunoprecipitation with the 50 kDa glycoprotein on IVD31-Sepharose from alkaline-treated complex
[4] = molecular target: dystrophin (rabbit); assay: co-immunoprecipitation with dystrophin on XIXC2-Sepharose from alkaline-treated complex

| percent immunoprecipitated [1] [%] | percent immunoprecipitated [2] [%] | percent immunoprecipitated [3] [%] | percent immunoprecipitated [4] [%] | Molecule |
| --- | --- | --- | --- | --- |
| 96 | 96 | 96 | – | 35 kDa dystrophin-associated glycoprotein |
| 96 | 96 | 96 | – | 43 kDa dystrophin-associated glycoprotein (from UniProt Q28685) |
| 96 | 96 | – | 51 | 59 kDa dystrophin-associated protein |
| 85 | 63 | – | – | 156 kDa dystrophin-associated glycoprotein (from UniProt Q28685) |
| 99 | – | – | – | dystrophin |
| – | 96 | – | – | B1 |
